Several values for one entry are separate records, joined by “and”; a condition that tells them apart may be missing. Identical values can stand only once.
Biological target: recombinant human gC1qR/HABP1/p32 (mature, amino acids 74-282) (human) (UniProt Q07021)
Assay: SEC; gel permeation chromatography of purified recombinant gC1qR/HABP1 on a Superdex 200 HR10/30 column, against molecular weight standards

stoichiometry N: 3 and 2
Substance: recombinant human gC1qR/HABP1/p32 (mature, amino acids 74-282) (from UniProt Q07021 74-282) (natural protein; other documents disagree on this pair)

— paper PMC2323294
